Assay [1] concerns the target ParE2 toxin of Mycobacterium tuberculosis H37Rv (Mycobacterium tuberculosis H37Rv) (UniProt P9WHG5). Put plainly: SEC. (In gel filtration, larger molecules generally elute earlier.)
For assay [2] the target is unchanged. Put plainly: crystal structure.

Among the data in publication PMC10899793, “Toxin release by conditional remodelling of ParDE1 from Mycobacterium tuberculosis leads to gyrase inhibition” (Nucleic Acids Research, 2023) are stoichiometry N (ParD2 per ParE2 (2:2 heterotetramer)) and stoichiometry N (ParD2 per ParE2 (1:1 heterodimer)) values, retold here.

On to “ParD2 antitoxin of Mycobacterium tuberculosis H37Rv (natural protein)”, for which, in assay [1], the stoichiometry N (ParD2 per ParE2 (2:2 heterotetramer)) was found to be 1. The same substance came in with a stoichiometry N (ParD2 per ParE2 (1:1 heterodimer)) in assay [2] of 1.
